Assay results as given in PMC3404891.

Key:
EGF (Homo sapiens) = EGF (Homo sapiens) (UniProt P01133); experiment: functional ELISA; details: cited from earlier work
[1] = biological target: T1, recombinant human EGFR/ErbB1 Fc Chimera (human, UniProt P00533 25-645); experiment: surface capture, Sypro Ruby fluorescence
[2] = biological target: T1, recombinant human EGFR/ErbB1 Fc Chimera; experiment: nanogap break-junction I-V measurement

Sequence of EGF (Homo sapiens) (P01133 971-1023): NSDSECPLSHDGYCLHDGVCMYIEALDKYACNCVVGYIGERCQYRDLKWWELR

For “EGFR/ErbB1 Fc chimera (from UniProt P00533)”, the Kd (EGF (Homo sapiens)) is listed as less than 8 nM.

B1: extended anti-EGFR RNA aptamer hybridized to surface-anchored capture ssDNA (mixed)
RNA: GGCGCUCCGACCUUAGUCUCUGUGCCGCUAUAAUGCACGGAUUUAAUCGCCGUAGAAAAGCAUGUCAAAGCCGGAACCGUGUAGCACAGCAGAGAAUUAAAUGCCCGCCAUGACCAG
DNA: CTGGTCATGGCGGGCATTTAATTC
modifications: 5'-amine on DNA strand S3
B1: binds [1].

B2: extended mutant (scrambled) aptamer hybridized to surface-anchored capture ssDNA (mixed)
RNA: GGCGCUCCGACCUUAGUCUCUGUUCCCACAUCAUGCACAAGGACAAUUCUGUGCAUCCAAGGAGGAGUUCUCGGAACCGUGUAGCACAGCAGAGAAUUAAAUGCCCGCCAUGACCAG
DNA: CTGGTCATGGCGGGCATTTAATTC
modifications: 5'-amine on DNA strand S3
B2: no binding [2].
